Common to all, as to conditions: both partners purified
The target of assay [1] is T1, PBP1B R157A (E. coli, UniProt P02919 46-844, R157A).
T1 construct: PBP1B, E. coli, residues 46-844, made by mutagenesis of pDML924; source: E. coli BL21(DE3), purified (membrane extract, HisTrap, thrombin, HiTrap SP ion exchange)
T1 sequence (looked up): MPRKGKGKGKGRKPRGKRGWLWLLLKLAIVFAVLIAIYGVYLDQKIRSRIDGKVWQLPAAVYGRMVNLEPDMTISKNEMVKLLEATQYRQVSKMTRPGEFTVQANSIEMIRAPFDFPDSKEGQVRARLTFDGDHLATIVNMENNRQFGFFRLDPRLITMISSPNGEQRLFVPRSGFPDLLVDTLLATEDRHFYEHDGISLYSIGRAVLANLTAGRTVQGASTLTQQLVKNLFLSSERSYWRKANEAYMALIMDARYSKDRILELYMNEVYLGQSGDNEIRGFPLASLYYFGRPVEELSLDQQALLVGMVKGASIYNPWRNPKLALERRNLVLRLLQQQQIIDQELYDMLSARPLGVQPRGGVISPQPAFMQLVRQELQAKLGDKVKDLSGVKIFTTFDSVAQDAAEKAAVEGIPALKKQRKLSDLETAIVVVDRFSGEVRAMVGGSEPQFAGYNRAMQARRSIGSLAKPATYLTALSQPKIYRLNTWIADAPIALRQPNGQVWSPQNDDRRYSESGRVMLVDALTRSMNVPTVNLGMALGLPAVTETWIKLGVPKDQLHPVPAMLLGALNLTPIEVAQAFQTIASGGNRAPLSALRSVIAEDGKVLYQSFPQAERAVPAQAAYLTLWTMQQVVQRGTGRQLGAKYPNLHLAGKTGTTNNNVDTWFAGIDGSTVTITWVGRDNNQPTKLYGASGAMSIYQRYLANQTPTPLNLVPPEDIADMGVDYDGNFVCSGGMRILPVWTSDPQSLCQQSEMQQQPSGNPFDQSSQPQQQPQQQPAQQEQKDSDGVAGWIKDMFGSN
Nature of the assay: SPR; reducing conditions: 2 mM TCEP in the SPR running buffer, immobilised PBP1B versions incubated in it for 30 min before the assay; LpoB injected from 19.5 nM to 10 μM; apparent KD. Background: SPR reads the build-up and loss of mass on a sensor chip optically.

The target in the next assay is T2, PBP1B I202F (E. coli, UniProt P02919 46-844, I202F).
T2 construct: PBP1B, E. coli, residues 46-844, made by mutagenesis of pDML924; Substitution first found in the suppressor screen of Markovski et al. 2016 (LpoB bypass); source: E. coli BL21(DE3), purified (membrane extract, HisTrap, thrombin, HiTrap SP ion exchange)
T2 sequence (looked up): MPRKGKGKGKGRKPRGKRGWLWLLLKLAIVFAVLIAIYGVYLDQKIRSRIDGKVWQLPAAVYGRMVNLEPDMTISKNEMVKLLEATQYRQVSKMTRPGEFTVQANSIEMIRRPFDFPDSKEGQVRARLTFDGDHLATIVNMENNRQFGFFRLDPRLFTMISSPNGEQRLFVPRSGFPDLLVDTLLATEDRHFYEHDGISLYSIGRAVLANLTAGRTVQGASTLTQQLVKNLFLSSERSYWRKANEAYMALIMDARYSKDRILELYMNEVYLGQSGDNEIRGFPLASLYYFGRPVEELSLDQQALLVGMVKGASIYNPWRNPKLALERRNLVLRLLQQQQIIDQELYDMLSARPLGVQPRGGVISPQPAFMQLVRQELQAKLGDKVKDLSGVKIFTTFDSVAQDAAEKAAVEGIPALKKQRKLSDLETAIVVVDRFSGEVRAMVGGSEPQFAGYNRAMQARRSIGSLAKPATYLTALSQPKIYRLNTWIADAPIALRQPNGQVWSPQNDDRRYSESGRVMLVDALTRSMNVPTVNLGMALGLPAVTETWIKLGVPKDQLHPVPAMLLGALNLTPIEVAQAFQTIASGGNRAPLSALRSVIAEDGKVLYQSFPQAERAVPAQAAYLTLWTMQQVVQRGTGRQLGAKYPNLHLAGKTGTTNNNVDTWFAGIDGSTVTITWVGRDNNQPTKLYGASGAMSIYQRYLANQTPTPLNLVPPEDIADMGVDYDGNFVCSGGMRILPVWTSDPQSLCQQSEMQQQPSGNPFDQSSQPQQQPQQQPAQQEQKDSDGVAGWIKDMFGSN
The description is as above.

For assay [2], the target named is T1, PBP1B R157A. Nature of the assay: SPR; PBP1B versions immobilised to the chip surface; CpoB versions injected from either 3.9 nM to 2 μM or from 78 nM to 40 μM; apparent KD by non-linear regression, at least three independent experiments.
Another assay addresses T3, PBP1B D443A (E. coli, UniProt P02919 46-844, D443A).
T3 construct: PBP1B, E. coli, residues 46-844, made by mutagenesis of pDML924; source: E. coli BL21(DE3), purified (membrane extract, HisTrap, thrombin, HiTrap SP ion exchange)
T3 sequence (looked up): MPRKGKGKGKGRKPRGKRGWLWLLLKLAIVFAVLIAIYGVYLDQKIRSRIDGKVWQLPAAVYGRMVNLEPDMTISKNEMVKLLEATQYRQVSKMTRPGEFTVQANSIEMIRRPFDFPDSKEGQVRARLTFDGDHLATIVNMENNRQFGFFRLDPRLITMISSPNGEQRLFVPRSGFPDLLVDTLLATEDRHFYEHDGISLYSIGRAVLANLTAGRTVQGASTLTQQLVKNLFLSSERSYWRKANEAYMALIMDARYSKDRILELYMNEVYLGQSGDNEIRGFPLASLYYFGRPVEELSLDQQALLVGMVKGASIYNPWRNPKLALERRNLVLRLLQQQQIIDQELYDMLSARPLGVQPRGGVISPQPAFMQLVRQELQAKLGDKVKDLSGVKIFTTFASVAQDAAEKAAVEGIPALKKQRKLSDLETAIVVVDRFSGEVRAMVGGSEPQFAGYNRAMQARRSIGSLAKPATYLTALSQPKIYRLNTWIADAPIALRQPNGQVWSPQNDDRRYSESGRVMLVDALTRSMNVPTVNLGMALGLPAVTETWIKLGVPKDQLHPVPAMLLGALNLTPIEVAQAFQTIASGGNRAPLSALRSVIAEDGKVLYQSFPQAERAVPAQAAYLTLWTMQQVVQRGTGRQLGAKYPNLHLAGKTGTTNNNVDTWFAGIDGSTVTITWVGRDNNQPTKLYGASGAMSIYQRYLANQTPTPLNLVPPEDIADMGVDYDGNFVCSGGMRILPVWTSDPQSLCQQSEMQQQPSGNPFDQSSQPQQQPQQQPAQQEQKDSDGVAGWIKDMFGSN
The description is as above.

This passage reports Kd results from article PMC6220978, “Induced conformational changes activate the peptidoglycan synthase PBP1B” (Molecular Microbiology, 2018).

B1: LpoB (natural protein, E. coli)
chain: VGQREPAPVEEVKPAPEQPAEPQQPVPTVPSVPTIPQQPGPIEHEDQTAPPAPHIRHYDWNGAMQPMVSKMLGADGVTAGSVLLVDSVNNRTNGSLNAAEATETLRNALANNGKFTLVSAQQLSMAKQQLGLSPQDSLGTRSKAIGIARNVGAHYVLYSSASGNVNAPTLQMQLMLVQTGEIIWSGKGAVSQQ
notes: LpoB, E. coli; also called lipoprotein LpoB; source: E. coli BL21(DE3), purified (HisTrap, Superdex 200), as in Egan et al. 2014
As to B1, the Kd with PBP1B R157A [1] was 357 nM; with PBP1B I202F, 17 nM.

B2: CpoB (full length) (natural protein, E. coli, UniProt P45955 27-263, looked up)
chain: QAPISSVGSGSVEDRVTQLERISNAHSQLLTQLQQQLSDNQSDIDSLRGQIQENQYQLNQVVERQKQILLQIDSLSSGGAAAQSTSGDQSGAAASTTPTADAGTANAGAPVKSGNANTDYNAAIALVQDKSRQDDAMVAFQNFIKNYPDSTYLPNANYWLGQLNYNKGKKDDAAYYFASVVKNYPKSPKAADAMFKVGVIMQDKGDTAKAKAVYQQVISKYPGTDGAKQAQKRLNAM
notes: CpoB, E. coli; The coiled-coil construct begins at residue 27, so the purified 'full length' protein may lack the signal peptide (surmise); source: E. coli BL21(DE3), purified (HisTrap, Superdex 200), as in Gray et al. 2015
Consider B2, for which the Kd with PBP1B R157A [2] came to 147 nM; with PBP1B D443A, 95 nM.
